The nanobody polyreactivity screen of Harvey et al. (2022)

Experiment: yeast display, Sf9 membrane polyspecificity reagent, FACS + sequencing; frameworks hold sequencing errors
In short: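 In a synthetic yeast display library (Saccharomyces cerevisiae BJ5465), nanobody expression was induced with galactose for 36–48 hours. FACS gates were set low and high (top ~1%) using anti-HA fluorescence for expression and streptavidin fluorescence for binding of the Sf9 membrane reagent. Each polyreactivity label is drawn from the gate of origin.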

Q: Which “polyreactivity (PSR sort gate)” value does the source give for “QVQLVESGGGLVQAGGTLRLICADSGFTFPVYAMGWSRQAPGKERQLVAAITRSGGRTYYADSVKGRFRISRDNAKNTVYLQMNSLKPEDTAFYYCNADYPYGPGSRVRYDYWGQGTQVTVSS” here?
A: high polyreactivity

Q: For “QVQLVESGGGLVQAGGSLRLSCAASGSTFTIYAMGWYRQAPGTERELVATIRAGGGRTSYADSVKGRFTISRDNAKNTVYLQMNSLKPEETAVYYCAVYVRPTRYGYWGQGTQVTVSS”, which “polyreactivity (PSR sort gate)” value is on record?
A: high polyreactivity

Q: Which “polyreactivity (PSR sort gate)” value does the source give for “QVELVESGGGLVQPGGSLRLSCAASGSTFYYYAMGWYRQAPGKERELVATISSGSSTNYADSVKGRFTISRDNAKNTVYLQMNSLKPEDTAVYYCAADRWYITLSIDATISYEYWGQGTQVTVSS” here?
A: low polyreactivity

Q: For “QDQLVESGGGLVQAGGSLRLSCAASGRNFYRNAMGWYRPAPGKEWEVVAAITQSSGSTYYADSVKGRCTISRDNAKHTVYLQMNSLKPEDTAVYYCAALVRKYGVDYWGQGTQVTVSS”, which “polyreactivity (PSR sort gate)” value is on record?
A: high polyreactivity

Q: Which “polyreactivity (PSR sort gate)” value does the source give for “QVQLVESGGGLVQAGGSLRLSCAASGRTFTNNAMGWYRQAPGKERELVAAIRWSGGSTYYADSVKGRFTISRDNAKNTVYLQMNSLKPEDTAVYYCAKGYGYVEAVIVQYDYWGQGTQVTVSS” here?
A: low polyreactivity

Q: With “QVQLVESGGGLVQAGGSLRLSCAASGYTFWRYAMGWYRQAPGKERELVAAISASGGSTYYADSVKGRFTISRDNAKNTVYLQMNSLKPEDTAVYYCNAVSAYSYYVNYDYWGQGTQVTVSS” as the sequence, how does the “polyreactivity (PSR sort gate)” value read?
A: high polyreactivity

Q: With “QVQHVESGGGLVQAGGSLRLSCAASGRTFLKNAMGWYRHAPVKERELVAAITSGGSTNYADSVKGRFTISRDNAKNTVYIQMNSLKPEDTAVYYCNAPSYWYYPVLGSFLTFDYWGQGTQVTVSS” as the sequence, how does the “polyreactivity (PSR sort gate)” value read?
A: low polyreactivity

Q: Which “polyreactivity (PSR sort gate)” value does the source give for “QFQLVESGGGLVQAGGSLRLSCAASGRIFGVNAMGWYRPAPGKERELVAAISYRGGHTYADSVKGRFTISRDNAKNTVYLQMNSLKPEDTAVYYCAARNRSSTGLGSRYGYWGQGTQVTVSS” here?
A: high polyreactivity

Q: With “QVQLVESGGGLVQAGGSLRLICAASGFTLRHYAMGWSRQAPGKERELVAAITKSGSSTYYADSVKGRFTISRDNAKNTVYLQMNSLKPEDTAVYYCAKKTSYSYAFRYDYWGQGTQVTVSS” as the sequence, how does the “polyreactivity (PSR sort gate)” value read?
A: high polyreactivity

Q: Which “polyreactivity (PSR sort gate)” value does the source give for “QVQLVESGGGLVQAGGSLRLSCAASGLIFGSYVMGWYRQAPGKERELVAAISSSGGSTYYADSVKVRFTISRDNENNTFYLQMNSLKPEDTAVYYCAARYTYSADKGYYWGQGTQVTVSS” here?
A: high polyreactivity

Q: Which “polyreactivity (PSR sort gate)” value does the source give for “QVQLVESGGGLVQAGGSLRLSCAASGLTFKRYAMGWYRQAPGKEREFVAAISAGGASTHYADSVKGRFTISRDNAKNTVYLQMNSLKPEDTAVYYCATDYRTFRPSFGYWGQGTQVTVSS” here?
A: low polyreactivity

Q: For “QVQLVESGGGLVQAGGSLRLSCAASGRTFYIYAMGWYRQAPGKERELVAAITYSSGTTYYADSVKGRFTISRDNAKNTVYLQMNSLKPEDTAVYYCAADVGFNQFDYWGQGTQVTVSS”, which “polyreactivity (PSR sort gate)” value is on record?
A: low polyreactivity

Q: With “QVQLVESGGGLVQAGGSLRLSCAAAGSTFRYNDMGWYRQAPGKERELVAAITRSGGSTYYADSVKGRFTISRDTAKNTVYLQMNSLKPEDTAVYYCNRGLRYVLAEDIAVPRVPEYYWGQGTQVTVSS” as the sequence, how does the “polyreactivity (PSR sort gate)” value read?
A: low polyreactivity

Q: With “QVQLVESGGGLVQAGVSLRLSCAASASTFSIYAMGWYRHAPGKERELVAAIDSGGRTKYADSVKGRFTISRDNAKNPVYLQMNSLKPEDTAVYYWAAVFRGWWLYDYWGLGTQVTVSS” as the sequence, how does the “polyreactivity (PSR sort gate)” value read?
A: low polyreactivity

Q: With “QVQLVESGGGLVQAGGSLRLSCAASRRTFSQYAMGWYRQAHGKERELVAAITSARSTYYADSVKGRFTISRDNAKNTVYLQMNSLKPEDTAVYYCAAYIRFRSNWGQGTQVTVSS” as the sequence, how does the “polyreactivity (PSR sort gate)” value read?
A: high polyreactivity

Q: Which “polyreactivity (PSR sort gate)” value does the source give for “QVQLVESGGGLVQAGGSLRLSCAASGSTFGYYAMGWYRQAPGKERELVAAISYSGGSTYYADSVKGRFTISRDNAKNTVYLQMNSLKPAVTAVYYCAARFTRQMYYWGQGTQVTVSS” here?
A: high polyreactivity

Q: Which “polyreactivity (PSR sort gate)” value does the source give for “QVQLVESGGGLVQAGGSLRLSCAASGSTFYYVNAMGWYRQAPGKEREFVAAISSSSGSTYYADSVKGRFTISRDNAKNTVYLQMNSLKPEDTAVYYCAKVPRYYKSYYWGQGTQVTVSS” here?
A: high polyreactivity

Q: With “QFQLVESGGGLVQAGGSLRLSCAASGGIFDTNAMGWYRQATGKDRELVAAITVRGGSTYYADSVKGRFTISRDNAKNTVYLQMNSLKPEDTAVYYCATRSPKRAAVRYNYWGQGTQVTVSS” as the sequence, how does the “polyreactivity (PSR sort gate)” value read?
A: high polyreactivity

Q: With “QVQLVESGGGLVQAGGSLRLSCAASGSTFVYNAMGWYRQAPGKERELVAAITVIGGRTYYADSVKGRFTISRDNAKNTVYLQMNSLKPEDTAVYYCNADATESIGYYDEYEYWGQGTQVTVSS” as the sequence, how does the “polyreactivity (PSR sort gate)” value read?
A: low polyreactivity

Q: Which “polyreactivity (PSR sort gate)” value does the source give for “QVQLVESGGGLVQAGGSLRLSCAASGITFYVYTMGWYRQAPGKERELVAAINGSGGSTNYADSVKGRFTISRDNAKNTVFLQMNSLKPEDTAVYYCAADWSLRLYDYWGQGTQVTVSS” here?
A: low polyreactivity

Q: For “QVQLVETGGGLVQAGGSLRLSCAASGITFWYYAMGWYIQAPGKERELVAAITSGGSTYYADSVKGRFTISRDNAKNTVYLQMNSLKPEDTAVYYCAKDSVWGAKNLTSYKYYYWGQGTQVTVSS”, which “polyreactivity (PSR sort gate)” value is on record?
A: low polyreactivity

Q: With “QVQLVESGGGLVQAGGSLRLSCADSGFIFVDYVMGWYRQSPGKERELVASISASGGTTYYADSVKGRLTISLDNAKNTVYLQMNSLKPEDTAVYYCNARWSPVNLRYGREGDYWGQGTQVTVSS” as the sequence, how does the “polyreactivity (PSR sort gate)” value read?
A: high polyreactivity

Q: Which “polyreactivity (PSR sort gate)” value does the source give for “QVQLEESGGGLVQAGGSLRLTCAASGSTFYGYAMGWYRQAPGKERELVAAITRSGGSTYYADSVKVRFTISRDNAKYTVYLQMNSLKPEDTAVYYCNKYIGWYGTGSDYYWGQGTQVNVSS” here?
A: high polyreactivity

Q: With “QVQLVESGGGLVQAGGSLRLSCAASGSTFVRYAMGWYRLAPGKERELVAAIAKSGGSTYYADSVKGRFTISRDIAKNTVYLQMNSLKPEDTAVDYCNSDVYKNSKVRIMGYWGLGTQVTVSS” as the sequence, how does the “polyreactivity (PSR sort gate)” value read?
A: low polyreactivity

Q: Which “polyreactivity (PSR sort gate)” value does the source give for “QVQLVESGGGLVQAGGSLRLSCAASGSTFRWYAMGWYRQAPGKERELVAAISGSGGSTYYADSVKGRFTISRDNAKKTVYLQMNSLKPEDTAVYYCNKRYFTYLGEHTVGYWGQGTQVTVSS” here?
A: high polyreactivity

Q: For “QVQLEESGGVLVQAGGSLRLSCAASGRIFVWYAMGWYRQAPGKERELVAAISSADSTNYADSVKGRFTISRDNAKNTVYLQMNSLKPEDTAVYYCNAEGWPGNVVYGYYYWGQGTQVTVSS”, which “polyreactivity (PSR sort gate)” value is on record?
A: low polyreactivity

Q: For “QVQLVESGGGLVQAGGSLRLSCAASGRIFTVFGMGWYRQAPGKERELVAAISWSGGGTYYADSVKGRFTISRDNAKNTVYLQMNSLKPEDTAVYYCNAVRQYTWSLVFFSSDYDYWGQGTQVTVSS”, which “polyreactivity (PSR sort gate)” value is on record?
A: low polyreactivity

Q: With “QVQLVESGGGLVQAGGSLRLSCAASGSIFTGNTMGSDRQAPGKERELVAAISRSGGSTYYADSVKGRFTISRDNAKNTVYLQMNSLKPEDTAVYYCAAYRTHGPPRAIRFDYWGQGTQVTVSS” as the sequence, how does the “polyreactivity (PSR sort gate)” value read?
A: high polyreactivity

Q: For “QVQLVESGGGLVQAGGSLRLSCAASGSIFNGYVMGWYRQAPGKERELVAAISSGGRTYYADSVKGRFTISRDNAKNTVYLQMNSLKPEDTAVYYCNAYWLHYPSRVRKITAYDYWGQGTQVTVSS”, which “polyreactivity (PSR sort gate)” value is on record?
A: low polyreactivity

Q: Which “polyreactivity (PSR sort gate)” value does the source give for “QVQLVESGGGLVQAGGSLRLSCAASGITITRYDMGWYRQAPGKERELVAAINWSGGRTYYADSVKGRFTISRDNAKYTVYLQMNSLKPEDTAVYYCNRALKYRRRDYWGQGTQVTVSS” here?
A: high polyreactivity
